Source: the DeepSol protein solubility set

Test: soluble on expression in E. coli; label from the status in PepcDB or PDB records
For “MGSDKIHHHHHHMKILKHSLFTSVVNKMRLIHHQDDTAKLSLLITGMSGTGKSTLVDWYEQQYPVEYTPEVTLKRVICVHLTKPNSPINLLEQIINAMGTSYIPRRRTLNKLLHQLKCLLEACQTELIILDEAQECLPDSDGIKAQSMAKAFVAIIDKCNVPLILIGTPALKRLLKLKYLADVKNISREEQLSRRFIAPCQLNIFLSHCDAWVNVINFFGKTKGLRNLNTKDADILDRLYVATYGRIGLIKKLFAFTQLNETSDLQATFYDAYELVDTTGEANPFNQQDYTYAAIIKKAENIERIYFTHNKTHPSEKRVADRLFH”, the “soluble on expression in E. coli” value was “not soluble”. With “MSLRHVRERGVLVATLQRLAEQDPLTGIANRQGFQALLNARLAENEGRGVALGHLDLDNFRHVNDALGHQSGDRLILQVVARLKHQLEAGDQLARLGSDEFALLIDTRRDANRAEWIAERIVEALAEPYWIDGESLLLGCSLGIAHARAQSGADPLMWHAHIAMRQAKGSQGCTFHVFNERINRNARSLADLESELRRALRRDELELHYQPRLNLADGRIVGLEALVRWRHAERGLLPPSEFVPLAEQSGLIVPLGYWVISRALRDMQALCERGLEPLHMAVNLSFRQFQDSQLLATLSRLILEHGVDARWLEFELTETAVMRRNEVVRQTMDALGRLGVRFSLDDFGTGFSSFVHLNSLPITLLKVDRSFVAEMEMREENRKLVHAMINLAHNLNLEVVAEGVESEEQLTLLRGFGCDQVQGFLVSRPLPIGELMAYLLQAPGRQLEGEGHHHHHH” the “soluble on expression in E. coli” value was “soluble”. For “MANRVTMMMKIFENQTAMLHKALNDQHTIESKYKQMETNYENLILKKNLLEGEIQRLRDPERVKSATKLERTKKPGKSEKKKDKDLERNISPNREFKSFEELHQIQETERNKTQLDNVLPQKSEMFKEERTKTKRGQSQNKSKVKIEDSKDSLPKKSDTQLGEQRKDQISSDQSKRAK”, the “soluble on expression in E. coli” value was “soluble”. With “RSFYNLGMDYKYRFHRFSIQGEAALGISGMAFMNQVLYSPLQDIRLMLVHRYYSHDYWAMFAHSFSEGSSVQNENGWYLAASVNPFNRWTFFVSADLFSFPWWRYRISKASKGVDLLFQADYVPSKTVDMYVNYRYKQKERDVTGTQGKVILPTYHHRLRYRLNYLPCSSLSLRTTVDYNHFHSSGKTAGQGYQLTQTAGWKLPWLPLTTELQGSYFHTDDYDSRIYIYEKGLLYSFYTPSFQGEGIRLAIHFRYDMNKHWTAIAKLGQTTYFDRDEIGSGNDLIRGNKKTDVQMQLRLKF” the “soluble on expression in E. coli” value was “not soluble”. For “AIAKLPISTISPIHYMKSVVSSRETRNESNKSRRTFASTEWNKIIRETLYLETVYIPVDATSHSPDIIFKLQSPVEPKVLTVGVACKGRWKSEGIGWSDIIDEAKKFLDPVYDQVLSSAMDYHHCMLIIVSTKLSLNVSNELGNQSRCYSSGMFIGGDSFKVPDNCELVILCERDVQMLIDKEILNGLERAFCVSHNPTFWDFGLDLLDRIRNSFLSWQ”, the “soluble on expression in E. coli” value was “soluble”. In the case of “MKYRSVFDIIGPVMIGPSSSHTAGAARMGQVARQLFRHEPERVSISLYGSFAKTYRGHGTDVALIGGILGFETDDLRIPEALEIAKEREIEVEFIEEDANAPHPNTARIRLYKGEEEIEVVACSIGGGKIEVVELNGFDLQLSGTSPALLIVNNDRFGAIAAVASILAKHEINISTMSVSRKEKGRRALMVIETDEILADEVIEEIKAQQNICQVTIME”, the “soluble on expression in E. coli” value is reported as “not soluble”. With “MGSDKIHHHHHHVEQTMFTNEVILSWLQYFSKNAPINLAKLKMLDITGKNKNLIPTVMSNRAVLVFTDAGHPDIFYDMWNAELGDCDIWYNEGSEPSGEIKHDKVSDMINRGINASAAMLILNPNAATNYHIGMENSRFSCGSVQYVCREVRAVIMNKLNLGDQDNICIISGESIAVEAAMIAAEGSVIAVEYDRRDRNTMQENVKKFDLNNVTIVESLENGIPDKLPVPDIAFIVGSPRIGSEIKALLSINPVMDFVIYTLDFEVLMSLPALFRENGLERTEAIHVAVSRVNSKKMVEPFPAPWLISGRSIKG” the “soluble on expression in E. coli” value was “not soluble”. For “MSRGDKMLKFEIKARDGAGRIGKLEVNGKKIETPAIMPVVNPKQMVVEPKELEKMGFEIIITNSYIIYKDEELRRKALELGIHRMLDYNGIIEVDSGSFQLMKYGSIEVSNREIIEFQHRIGVDIGTFLDIPTPPDAPREQAVKELEITLSRAREAEEIKEIPMNATIQGSTYTDLRRYAARRLSSMNFEIHPIGGVVPLLESYRFRDVVDIVISSKMALRPDRPVHLFGAGHPIVFALAVAMGVDLFDSASYALYAKDDRYMTPEGTKRLDELDYFPCSCPVCSKYTPQELREMPKEERTRLLALHNLWVIKEEIKRVKQAIKEGELWRLVDERARSHPKLYSAYKRLLEHYTFLEEFEPITKKSALFKISNESLRWPVVRRAKERAKSINERFGELVEHPIFGRVSRYLSLTYPFAQSEAEDDFKIEKPTKEDAIKYVMAIAEYQFGEGASRAFDDAKVELSKTGMPRQVKVNGKRLATVRADDGLLTLGIEGAKRLHRVLPYPRMRVVVNKEAEPFARKGKDVFAKFVIFADPGIRPYDEVLVVNENDELLATGQALLSGREMIVFQYGRAVKVRKGVE”, the “soluble on expression in E. coli” value was “soluble”. In the case of “MSTYLIGDIHGCLDELLALLAQVNFDPQQDTLWLTGDLVARGPASLDVLRYVRSLGPAVRMVLGNHDLHLLAVYAGISRNKPKDRITPLLDAPDADELINWLRRQPVLQVDDQLKLIMAHAGITPQWDIETAKMCAREVEAVLSSDSYPLFLDAMYGDMPNNWSPELTGLARLRFSTNALTRMRFCFPNGQLDMICKDTPENAPAPLKPWFDLPRLVDPEYSIIFGHWASLEGKGVPEGIYGLDTGCCWGGDLTLLRWDDKRYFTQRAFKAEAEINNNNGFAAGEAVQH”, the “soluble on expression in E. coli” value is reported as “not soluble”. With “MKTTLLSAVLASTLLVCAPATVLAQPATSSAPAAQGAATKTVIDSSTRILSTLDQRRAEFRGNPAALRQYINGELNKAFDRDYSARLVLGVHGRGASDADVKLFADALAENLMQRYGTALLNFEGKPTFRAKSESALPGNRGVKVSTDLLRAGNDPTPVDYLMRNSGGQWKIFDVMIEGISYVQTFKTQFDGPLREKGIAKVAADLRSGNLQVGATPANGQLEHHHHHH” the “soluble on expression in E. coli” value was “soluble”. In the case of “TAQFSWDTQLNFSQNKSKIIELLPGKPGMQYALGGSDALQVYAVAGGAYGEIWGTKYQRVEEGEFKGQLLLNESGLPQATSDKHKIGEQQPDFLLGWTNTFNYKNFTLSFLIDGRFGGDIFSFTNMNLQRSGIAECTAPGGKREDIVVAGVIKDGNGYKVNDQSVSLERYYKALATGRAGISEAYIYDATNIRLRNIALSYRFPSSMLKKTPFQQVKLGFTVNNVWMISSHLDGIDPESVYATSTNATGLENSSAPTSRSYLFNVTLGF”, the “soluble on expression in E. coli” value is reported as “not soluble”. For “MSHLDEVIARVDAAIEESVIAHMNELLIALSDDAELSREDRYTQQQRLRTAIAHHGRKHKEDMEARHEQLTKGGTIL”, the “soluble on expression in E. coli” value was “soluble”. For “VQRPWLAPLPGAPMNACRLLLCFPYGGGGASAFNDLSRLADVGVATWAVKLPGREDRSMEAPVTRVANVIEAIVDALQSVGIPYAFYGHSFGAGLALDVAHALAERDRPLPTHLVLSGRMPPHTGYSPLLGAMDDNQLWQHVCSESLLPLPTDASCSFARHALGKLKADLALNAQLTYRFIRPLPVPLYVLNGQDDPLLELHRLDEWQRYTSTSFHSEYVPGGHFFFNINFQLLYLPLLTALD”, the “soluble on expression in E. coli” value was “not soluble”. With “MFDLAERLSSNKSNESKLSHKLKTMLFYQTEECRSLVNESFRFDGKDEPKCVKNRDEEFRQIDLLNPPEVVIIELNASQDVVQDAQRLAHLLPSQVSVVIVGSEDAISTIRLLKEMGFYYLFWPVSKQECSDFMKHVLDNHEQHRGLMANRKSKRVAMVGVKGGVGTSLISSEVSRMLSFDKGVSTLLVDHNYHGGNLDIFMGLKQHQKRIVQKGTLISNIDGTYALGLIRKITPMLSMLAIDSDELNAQELKEYTLAVQEQALKNSSVMIEDHAHLIRNEDDIIKLLQQVDVLVLVFDATVSSLRDYNRLNQLVKKNNLDNQTRVISVLNSSRPSNSGSVSAEEIEKYSGQRATISIPYDDKAPQYVLEGLQIVKTKSAMALPLMNLVALILGEEPKQESRSFLSFFKKKG” the “soluble on expression in E. coli” value was “not soluble”. In the case of “NTWKIFVGNVSAACTSQELRSLFERRGRVIECDVVKDYAFVHMEKEADAKAAIAQLNGKEVKGKRINVELSTKGQKK”, the “soluble on expression in E. coli” value is reported as “soluble”. With “MSAPKPFVIGIAGGTASGKTTLAQALARTLGERVALLPMDHYYKDLGHLPLEERLRVNYDHPDAFDLALYLEHAQALLRGLPVEMPVYDFRAYTRSPRRTPVRPAPVVILEGILVLYPKELRDLMDLKVFVDADADERFIRRLKRDVLERGRSLEGVVAQYLEQVKPMHLHFVEPTKRYADVIVPRGGQNPVALEMLAAKALARLARMGAA” the “soluble on expression in E. coli” value was “soluble”. In the case of “SNAMAHEAQKAIARNSLLIRSLPEQHVDALLSQAVWRSYDRGETLFLQEEKAQAIHVVIDGWVKLFRMTPTGSEAVVSVFTRGESFGEAVALRNTPYPVSAEAVTPCEVMHIPSPVFVSLMRRDPEICISILATTFGHLHSLVAQLEQLKAQTGAQRVAEFLLELCDCDTGACEVTLPYDKMLIAGRLGMKPESLSRAFSRLKAAGVTVKRNHAEIEDIALLRDYAESDPADSWSES”, the “soluble on expression in E. coli” value is reported as “soluble”. In the case of “MNEQPNNENITQSASRDLQIIEDDAFSYEGYQVVRGEFFAHTYEPSFTFNANKVSVNTACIKKLPQTDFVQILVNPDEKKLAVRPCQEDEKDSFRWCSATKKRSPRQITCRIFFAKVISLMEWNPSYRYKLLGKLIRSDNELLFVFDLTTPEIYVRAEKEDGKIKTSRTPTYPAEWQNQFGVPVEEHQSNLQINMFDGYAVFGISENTQPSEEAQNTSVPPKEETHYEQSTLFPADPMHLEHHHHHH”, the “soluble on expression in E. coli” value is reported as “soluble”. With “MGSDKIHHHHHHMNETNFDWDDLRLFLAVAREGGLAAAAASTGKSAPTLGRRMLNLERRLGSDLFQRMARGYALTEDGQHLLAKAARLESLVLPITAIDPEQAIPVVKVSAGSWVTHLLCANVSEIIGSDRIRLRFIASDDVADIGRREALIGIRNHRPEGSGLAGRRITRVRFAVYARNRKVNTWARVIATTPSAKWVREEARTADAIEVTSPRNALDLALAGTARVVLPTFIGSQFDTLKQVSPLIGDLEHEQWLVTHHEDRFVPQVRKVIDRIYLILKQAKTSS” the “soluble on expression in E. coli” value was “not soluble”. With “MDLKVVVSLSSRLYTDEIAKMQQRIGCILPLASTHGTQNVQGLGLGQVYSLETVPDYVSMYNYLSDCTLAVLDEVSVDSLILTKIVPGQTYAIKNKYQPFFQWHGTGSLSVMPPVFGREHATVKLESNDVDIVFPMVLPTPIAEEVLQKILLFNVYSRVVMQAPGNADMLDVHMHLGSVSYLGHHYELALPEVPGPLGLALLDNLSLYFCIMVTLLPRASMRLVRGLIRHEHHDLLNLFQEMVPDEIARIDLDDLSVADDLSRMRVMMTYLQSLASLFNLGPRLATAAYSQETLTATCWLR” the “soluble on expression in E. coli” value was “not soluble”. In the case of “AWQVNTAYTAGQLVTYNGKTYKCLQPHTSLAGWEPSNVPALWQLQ”, the “soluble on expression in E. coli” value is reported as “soluble”. With “DEAWLTEMLKRVNVLPEALVLTQAANESAWGTSRFATQANNLFGQWCYKQGCGIVPAQRAAGKTHEVQKFDSVQQSIHGYFMNVNRNPAYADLRDIRAMLADKHKNLFSVATASELTHGLLSYSERGIAYVNDLRSMIRHNNAYWTQ” the “soluble on expression in E. coli” value was “not soluble”.
